Experimental data as given in patent US20220267421A1 (INVOX PHARMA, published 2022).

B1: G1-AA/FS28-024 (antibody, human IgG1, kappa, L234A L235A, V domains shown)
VH: EVQLLESGGGLVQPGGSLRLSCAASGFTLSYSSMSWVRQAPGKGLEWVSFITPSTGYTHYADSVKGRFTISRDNSKNTLYLQMNSLRAEDTAVYYCARRALTFDYWGQGTLVTVSS
VL: EIVLTQSPGTLSLSPGERATLSCRASQSVSSSYLAWYQQKPGQAPRLLIYGASSRATGIPDRFSGSGSGTDFTLTISRLEPEDFAVYYCQQASSYPLTFGQGTKVEIKR
notes: Complete human IgG1 with LALA mutation; also called FS28-024 mAb (in G1-AA format)
B2: G1-AA/FS28-026 (antibody, human IgG1, kappa, L234A L235A, V domains shown)
VH: EVQLLESGGGLVQPGGSLRLSCAASGFTFSNYAMTWVRQAPGKGLEWVSSITPYYSKTDYADSVKGRFTISRDNSKNTLYLQMNSLRAEDTAVYYCARNWYRFDYWGQGTLVTVSS
VL: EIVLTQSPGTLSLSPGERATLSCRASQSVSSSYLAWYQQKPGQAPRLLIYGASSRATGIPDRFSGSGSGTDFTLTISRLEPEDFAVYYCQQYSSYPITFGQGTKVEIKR
notes: IgG1 LALA; also called FS28-026 mAb (in G1-AA format)
B3: G1-AA/FS28-091 (antibody, human IgG1, kappa, L234A L235A, V domains shown)
VH: EVQLLESGGGLVQPGGSLRLSCAASGFTFTNYAMSWVRQAPGKGLEWVSSIKPYDGNTYYADSVKGRFTISRDNSKNTLYLQMNSLRAEDTAVYYCARNRWVFDYWGQGTLVTVSS
VL: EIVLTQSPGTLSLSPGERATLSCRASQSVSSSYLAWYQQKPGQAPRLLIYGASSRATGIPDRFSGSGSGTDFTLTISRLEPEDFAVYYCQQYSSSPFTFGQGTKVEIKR
notes: IgG1 LALA; also called FS28-091 mAb (in G1-AA format)

Tests used:
[1] = molecular target: T1, human MSLN-His-Avi (human, UniProt Q13421 296-598, single biotin (BirA) in the biotinylated form); assay: ELISA, hMSLN-His-Avi coated at 1 ug/ml
T1 construct: Monomeric, made in HEK293-6E; Used both immobilised and in solution; also called hMSLN-His-Avi; biotinylated hMSLN-His-Avi

[2] = molecular target: T2, cell surface human mesothelin (MSLN) (human, UniProt Q13421 296-598); assay: flow cytometry, NCI-H226 cells (n = 3)
T2 construct: whole, on cells; also called cell surface MSLN
Experimental: (§1) Briefly, NCI-H226 cells (ATCC CRL-5826) were harvested from T175 cell culture flasks using StemPro Accutase (Gibco, A11105-01). Cells were centrifuged at 1200 rpm for 3 min and resuspended in ice cold FACS buffer made up of DPBS (Life Technologies, 14190169) and 1% BSA (Sigma-Aldrich, A7906) at 2×10⁶ cells/ml and 50 μl per well was seeded in a 96-well V-bottom plate (Costar, 3894). All mAbs tested were diluted in FACS buffer in 120 μl at a concentration range of 0.01-200 nM (4-fold dilutions). The NCI-H226 cells were then centrifuged, supernatant removed and cells resuspended in 100 μl of each mAb dilution and incubated at 4° C. for 45 min. Cells were washed twice by centrifugation with 150 μl FACS buffer, resuspended in 100 μl containing goat anti-human IgG (γ-chain specific) F(ab′)2 fragment-R-Phycoerythrin antibody (Sigma, P8047) diluted 1:1000 in FACS buffer and incubated at 4° C. for 45 min. The cells were washed once with 150 μl FACS buffer and then with 150 μl DPBS, resuspended in 150 μl DPBS containing DAPI (Biotium, 40043) at 1:10.000 and read on the BDCantoll or iQue (Intellicyt). Data was analysed using FlowJo v10 to determine the signal geometric mean for PE for live cells in each well.

[3] = molecular target: T1, human MSLN-His-Avi; assay: competition ELISA: mAb pre-mixed with biotinylated hMSLN-His-Avi, binding to coated MUC16 (competitor)
Experimental: Plates were washed 3 times with 1× PBS and blocked with 300 μl PBS containing 2% Tween20 and 2% Marvel Milk. A concentration of anti-MSLN mAbs (0.23 nM to 500 nM, 3-fold dilutions) were pre-mixed with biotinylated hMSLN-His-Avi antigen (final concentration 2 μg/ml) in a volume of 100 μl for 1 hr at room temperature. After removal of the blocking solution, the mAb/MSLN mixture was added to the plates and incubated for 1 hr at room temperature. Plates were washed 3 times with PBST (1× PBS and 0.05% Tween20) and incubated with streptavidin-HRP (Thermo Scientific, 21126, 1:1000 dilution in 1× PBS) for 1 hr at room temperature. Finally, plates were washed 3 times with PBST and 3 times with PBS. […] Absorbances were read at 450-630 nm (Gen5 software, BioTek).

[4] = molecular target: T2, cell surface human mesothelin (MSLN); assay: flow cytometry on NCI-H226 cells (endogenous cell surface MSLN), detection with anti-human IgG-PE, geometric mean MFI
Experimental: as §1

T1 sequence (Q13421 other isoform, or with tags, fused parts or gaps): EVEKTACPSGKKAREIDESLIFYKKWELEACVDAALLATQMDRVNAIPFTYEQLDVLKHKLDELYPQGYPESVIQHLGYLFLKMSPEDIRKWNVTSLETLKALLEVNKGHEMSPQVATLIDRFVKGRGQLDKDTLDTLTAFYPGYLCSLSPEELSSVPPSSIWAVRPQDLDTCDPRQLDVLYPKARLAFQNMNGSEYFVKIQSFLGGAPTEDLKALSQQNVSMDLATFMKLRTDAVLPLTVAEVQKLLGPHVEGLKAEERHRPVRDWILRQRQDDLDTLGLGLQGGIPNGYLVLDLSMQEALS
T2 sequence (Q13421 other isoform, or with tags, fused parts or gaps limits assumed): as the sequence (Q13421 other isoform, or with tags, fused parts or gaps) above

Binder | EC50 [1] [nM] | maximum binding signal [1] | EC50 [2] [nM] | Emax (MFI signal) [2] [MFI] | IC50 [3] [nM] | EC50 (read off the curve) [4] [nM]
B1 | ~0.5 | 3 | 0.62 | 14600 | 2.9 | ~1
B2 | ~0.5 | 3 | 1.08 | 13600 | 5.2 | ~1
B3 | ~0.5 | 3 | 1.22 | 11900 | 4.4 | ~1
